# PMC6451128, “Structural and functional analysis of the nucleotide and DNA binding activities of the human PIF1 helicase”
# T1: hPIF1HD R290A (human, UniProt Q9H611 206-620, R290A)
# T1 sequence: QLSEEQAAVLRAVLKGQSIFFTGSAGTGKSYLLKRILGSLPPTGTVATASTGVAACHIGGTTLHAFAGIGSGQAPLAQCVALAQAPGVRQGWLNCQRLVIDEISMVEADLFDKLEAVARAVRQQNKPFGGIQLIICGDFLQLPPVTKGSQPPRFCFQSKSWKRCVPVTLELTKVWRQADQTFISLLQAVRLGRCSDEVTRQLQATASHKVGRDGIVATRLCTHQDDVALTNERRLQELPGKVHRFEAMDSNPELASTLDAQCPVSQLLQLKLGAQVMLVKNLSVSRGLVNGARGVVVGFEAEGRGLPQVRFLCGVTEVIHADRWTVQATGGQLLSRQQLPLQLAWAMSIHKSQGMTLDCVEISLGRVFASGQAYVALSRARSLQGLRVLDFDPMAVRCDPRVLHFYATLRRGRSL
# T2: hPIF1HD wild-type (human, UniProt Q9H611 206-620)
# T2 sequence: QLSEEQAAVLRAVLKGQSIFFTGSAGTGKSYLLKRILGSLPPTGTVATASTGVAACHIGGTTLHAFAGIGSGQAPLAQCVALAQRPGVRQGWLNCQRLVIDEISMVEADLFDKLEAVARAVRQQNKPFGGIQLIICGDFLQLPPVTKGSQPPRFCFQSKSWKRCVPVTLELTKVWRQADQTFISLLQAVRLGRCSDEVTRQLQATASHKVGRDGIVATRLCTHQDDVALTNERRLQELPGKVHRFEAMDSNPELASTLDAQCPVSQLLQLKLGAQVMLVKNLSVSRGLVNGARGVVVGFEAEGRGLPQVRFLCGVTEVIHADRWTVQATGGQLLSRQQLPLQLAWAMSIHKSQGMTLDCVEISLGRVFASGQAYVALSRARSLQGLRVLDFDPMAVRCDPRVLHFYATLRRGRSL
# T3: hPIF1HD K485E (human, UniProt Q9H611 206-620, K485E)
# T3 sequence: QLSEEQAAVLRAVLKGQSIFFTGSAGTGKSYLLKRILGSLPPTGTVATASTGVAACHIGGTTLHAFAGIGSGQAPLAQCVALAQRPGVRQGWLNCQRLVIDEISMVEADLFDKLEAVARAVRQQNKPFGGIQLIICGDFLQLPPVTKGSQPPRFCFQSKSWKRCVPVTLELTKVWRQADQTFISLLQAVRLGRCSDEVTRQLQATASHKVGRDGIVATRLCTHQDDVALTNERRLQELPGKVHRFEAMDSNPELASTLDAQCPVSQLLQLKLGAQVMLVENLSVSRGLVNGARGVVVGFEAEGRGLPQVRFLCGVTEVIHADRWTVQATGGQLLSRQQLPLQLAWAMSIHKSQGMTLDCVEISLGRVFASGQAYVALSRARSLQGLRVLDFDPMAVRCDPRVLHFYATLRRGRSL
# T4: hPIF1HD N486A (human, UniProt Q9H611 206-620, N486A)
# T4 sequence: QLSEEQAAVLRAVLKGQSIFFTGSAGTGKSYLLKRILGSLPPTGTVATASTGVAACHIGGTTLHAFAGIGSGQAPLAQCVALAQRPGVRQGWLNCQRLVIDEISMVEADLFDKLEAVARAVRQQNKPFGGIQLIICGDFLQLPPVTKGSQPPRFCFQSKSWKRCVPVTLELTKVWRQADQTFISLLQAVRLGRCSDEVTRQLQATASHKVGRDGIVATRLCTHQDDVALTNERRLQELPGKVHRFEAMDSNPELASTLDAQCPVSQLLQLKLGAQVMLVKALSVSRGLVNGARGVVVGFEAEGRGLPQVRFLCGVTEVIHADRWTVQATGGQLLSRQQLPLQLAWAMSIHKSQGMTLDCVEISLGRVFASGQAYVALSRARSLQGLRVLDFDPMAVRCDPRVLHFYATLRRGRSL
# Legend:
# hPIF1HD R290A = target: T1, hPIF1HD R290A; experiment: EMSA; no nucleotide; apparent, near saturation not reached; 20 mM HEPES-NaOH pH 7.5 (Results say pH 7.2), 135 mM NaCl, 5% glycerol, 1 mM DTT, 1 mg/ml BSA, 20 min at 20 C; 0.4 nM T(35); G4 assay: 0.1 nM G4 DNA, 2% PEG 8000 instead of glycerol, 5 uM T(35) competitor; settings: protein: recombinant; tags: His tag removed, GSRM left; label: 5' 32P (PNK)
# hPIF1HD wild-type = target: T2, hPIF1HD wild-type; experiment: EMSA; no nucleotide; apparent; 20 mM HEPES-NaOH pH 7.5 (Results say pH 7.2), 135 mM NaCl, 5% glycerol, 1 mM DTT, 1 mg/ml BSA, 20 min at 20 C; 0.4 nM T(35); G4 assay: 0.1 nM G4 DNA, 2% PEG 8000 instead of glycerol, 5 uM T(35) competitor; settings: protein: recombinant; tags: His tag removed by thrombin, GSRM left at N-term; label: 5' 32P (PNK)
# hPIF1HD K485E = target: T3, hPIF1HD K485E; experiment: EMSA; no nucleotide; 20 mM HEPES-NaOH pH 7.5 (Results say pH 7.2), 135 mM NaCl, 5% glycerol, 1 mM DTT, 1 mg/ml BSA, 20 min at 20 C; 0.4 nM T(35); G4 assay: 0.1 nM G4 DNA, 2% PEG 8000 instead of glycerol, 5 uM T(35) competitor; settings: protein: recombinant; tags: His tag removed, GSRM left; label: 5' 32P (PNK)
# hPIF1HD N486A = target: T4, hPIF1HD N486A; experiment: as above; settings: protein: recombinant; tags: His tag removed, GSRM left; label: 5' 32P (PNK)
binder,measurement,setting,value
TTTTTTTTTTTTTTTTTTTTTTTTTTTTTTTTTTT (ssDNA) [poly-T(35)],Kd,hPIF1HD R290A,~40.4 nM
same,Kd,hPIF1HD wild-type,2.3 ± 0.3 nM
same,binding signal,hPIF1HD K485E,> 50 fold decrease in affinity vs WT
same,binding signal,hPIF1HD N486A,> 50 fold decrease in affinity vs WT
